In test [1] the target is MitB (intact, updated open reading frame), glycosyltransferase (Streptomyces lavendulae NRRL 2564) (UniProt Q9WW09). The test can be described thus: SPR; Biacore 8K, 25 °C; MitB (5000 RU) or MitF (3000 RU) coupled to a CM5 chip in 10 mM NaAc pH 4.0; holo-MmcB flowed over (2.7-43.2 µM on MitB, 0.7-21.6 µM on MitF). In general terms: In SPR one partner is held on a chip, and binding of the other changes the refractive index at the surface.

The target in a further test is T1, MitF, reductase (Streptomyces lavendulae NRRL 2564, UniProt Q9X5R6 1-257).
T1 construct: MitF, reductase of the mitomycin C biosynthetic gene cluster, Streptomyces lavendulae NRRL 2564; source: E. coli BL21(DE3), pET30a (pJQK414), purified (Ni-NTA, FPLC); not shown: His6, N-terminal, kept
T1 sequence (looked up): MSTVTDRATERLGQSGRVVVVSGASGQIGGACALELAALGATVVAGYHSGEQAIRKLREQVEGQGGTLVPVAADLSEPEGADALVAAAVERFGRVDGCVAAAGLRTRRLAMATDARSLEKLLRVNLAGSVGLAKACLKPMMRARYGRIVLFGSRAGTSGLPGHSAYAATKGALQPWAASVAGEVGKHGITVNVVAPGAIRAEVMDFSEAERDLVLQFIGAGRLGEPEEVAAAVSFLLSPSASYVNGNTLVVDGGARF
The description is as above. To be noted: both partners purified.

The results in this text go back to article PMC8621148, “Determination of the Protein-Protein Interactions within Acyl Carrier Protein (MmcB)-Dependent Modifications in the Biosynthesis of Mitomycin” (Molecules, 2021).

B1: holo-MmcB (acyl carrier protein MmcB, tag-free) (natural protein, Streptomyces lavendulae NRRL 2564, UniProt Q9X5S0 1-93, looked up)
chain: METLTTDKIKDRLRKVLVDSLELSLDPSAVPDEGLVEKLGLDSINTIEFLIWVESEFGIEIADEDLSIKLIDSLDLLAGYVSERVNGVTAPAE
modifications: 4'-phosphopantetheine at Ser43 (holo-form)
notes: MmcB, acyl carrier protein of the mitomycin C biosynthetic gene cluster, Streptomyces lavendulae NRRL 2564; 93 amino acid residues; gene synthesised with codons optimised for E. coli; The methods name the holo form for both the pull-down and SPR; also called ACP; tag-free MmcB; not shown: His6, C-terminal, cleaved
In the case of B1, in test [1], the Kd amounted to 0.578 µM, the koff was 0.113 s⁻¹, the kon amounted to 195000 M⁻¹ s⁻¹ and the stoichiometry N worked out at 1. Also, in the test with MitF, reductase, the “stoichiometry N” value was 1.

By Kd is commonly meant the free concentration of one partner at which half of the binding sites on the other are occupied at equilibrium, for simple one-to-one binding. A higher Kd goes with lower affinity. For orientation: koff means the first-order rate constant of dissociation. Higher therefore signals a short-lived complex. One may read the kon as the second-order rate constant of association. Lower therefore signals slower complex formation. A word on the stoichiometry N: it is the number of molecules, sites or subunits per partner or assembly.
